{"source": "paper PMC5216522", "about": "“Pyruvic oxime dioxygenase from heterotrophic nitrifier Alcaligenes faecalis is a nonheme Fe^(II)-dependent enzyme homologous to class II aldolase” (Scientific Reports, 2017)", "proteins": {"B1": {"name": "rPOD (recombinant pyruvic oxime dioxygenase) (Alcaligenes faecalis) (protein)", "chain": "MDTPLRDKSYFDERATKEMATHLQQVQRDTRETMAFACRILAMTEQEAGLAGQISVRSERPGAYWTLRFGLGFDEATPEDFIEVDRDLNTLSGEGMANPATRFHLWVYEARPDVNSIIHTHSPWATVLATARQPLVISQMDMTPLHNDCAFLGEWPGVPIADQEGVIISKALGDKRAIILAHHGYLTAGKSCQEATYLSVYLERAARLQVRAQAAFGPLTPVDDTLAAEAHDYLLKPSIVNATFDYWSRQTQGIAPLTKTR", "notes": "full length, 261 residues, 29,106 Da; pET21a(+) NdeI/XhoI with own stop codon, untagged; expressed in E. coli BL21(DE3)-CodonPlus; homotetramer (135 kDa by gel filtration); Fe(II)-reconstituted"}}, "substrate": "CC(=NO)C(=O)O", "experiment": "nitrite production by diazo-coupling, Hanes-Woolf plot", "type": "biochemical, Alcaligenes faecalis", "conditions": "Fe(II)-reconstituted enzyme, 10 mM Tris-HCl pH 8.0, 1 mM sodium ascorbate, 100 μM FeSO4, 37 °C, co-substrate O2, kcat apparent, per subunit"}
{"protein": "B1", "values": [{"measurement": "Km", "value": 470, "unit": "µM"}, {"measurement": "kcat", "value": 4.69, "unit": "s⁻¹"}]}
